Data reported in FireProtDB (doi:10.1074/jbc.m110728200).

B1: Lysozyme C, P61626 (parent)
chain: MKALIVLGLVLLSVTVQGKVFERCELARTLKRLGMDGYRGISLANWMCLAKWESGYNTRATNYNAGDRSTDYGIFQINSRYWCNDGKTPGAVNACHLSCSALLQDNIADAVACAKRVVRDPQGIRAWVAWRNRCQNRDVRQYVQGCGV

Variants of: B1
Conditions: Homo sapiens; pH 2.66; Thermal; DSC; Gly-HCl 0.05 M; structure 1LZ1; whole UniProt chain shown

Variant | Tm [°C] | unfolding enthalpy (calorimetric) [kcal/mol] | unfolding enthalpy (van 't Hoff) [kcal/mol]
V20D | 59.6 | 103 | 99.9
V128Y | 63.3 | 106 | 105
V92R | 63.8 | 102 | 100

Same assay, conditions: Homo sapiens; pH 2.7; 64.9 °C; Thermal; DSC; Gly-HCl 0.05 M; structure 1LZ1; whole UniProt chain shown

Variant | ddG of mutation (higher = less stable) [kcal/mol] | heat capacity change of unfolding [kcal/mol/K] | unfolding enthalpy (calorimetric) [kcal/mol]
V20D | 1.43 | 1.58 | 111
V20N | 1.34 | 1.7 | 114
V20S | 1.41 | 1.55 | 111
V20R | 0.38 | 1.41 | 106
V20Y | – | 1.82 | 106
V128Y | 0.14 | – | 108
V128R | -0.88 | – | 101
V92S | 0.38 | 1.22 | 108
V92R | 0.07 | 1.67 | 104
V92N | 0.33 | 1.1 | 115
V92Y | 0.24 | 1.65 | 107
V92D | 0.43 | 1.58 | 107

Same assay, conditions: Homo sapiens; pH 2.7; Thermal; DSC; Gly-HCl 0.05 M; structure 1LZ1; whole UniProt chain shown

Variant | Tm [°C] | change of melting temperature, mutant - wild type (higher = more stable) [°C] | heat capacity change of unfolding [kcal/mol/K] | unfolding enthalpy (calorimetric) [kcal/mol]
V20D | 60.4 | -4.5 | – | –
V20N | 60.8 | -4.1 | – | –
V20S | 60.5 | -4.4 | – | –
V20R | 63.6 | -1.3 | – | –
V128D | 65.4 | 0.5 | – | –
V128N | 65.1 | 0.2 | – | –
V128Y | 64.4 | -0.5 | – | –
V128R | 67.8 | 2.9 | – | –
V92S | 64.9 | 0 | 1.22 | 108
V92R | 64.6 | -0.3 | – | –
V92N | 63.9 | -1 | – | –
V92Y | 64 | -0.9 | – | –
V92D | 63.5 | -1.4 | – | –

Same assay, conditions: Homo sapiens; pH 2.96; Thermal; DSC; Gly-HCl 0.05 M; structure 1LZ1; whole UniProt chain shown

Variant | Tm [°C] | unfolding enthalpy (calorimetric) [kcal/mol] | unfolding enthalpy (van 't Hoff) [kcal/mol]
V20D | 64.9 | 112 | 108

Same assay, conditions: Homo sapiens; pH 3.01; Thermal; DSC; Gly-HCl 0.05 M; structure 1LZ1; whole UniProt chain shown

Variant | Tm [°C] | unfolding enthalpy (calorimetric) [kcal/mol] | unfolding enthalpy (van 't Hoff) [kcal/mol]
V20D | 65.7 | 113 | 109
V20N | 66.3 | 117 | 111
V128R | 72.8 | 114 | 116

Same assay, conditions: Homo sapiens; pH 3.14; Thermal; DSC; Gly-HCl 0.05 M; structure 1LZ1; whole UniProt chain shown

Variant | Tm [°C] | unfolding enthalpy (calorimetric) [kcal/mol] | unfolding enthalpy (van 't Hoff) [kcal/mol]
V20D | 68 | 116 | 113

Same assay, conditions: Homo sapiens; pH 3.3; Thermal; DSC; Gly-HCl 0.05 M; structure 1LZ1; whole UniProt chain shown

Variant | Tm [°C] | unfolding enthalpy (calorimetric) [kcal/mol] | unfolding enthalpy (van 't Hoff) [kcal/mol]
V20D | 70.2 | 120 | 118
V20R | 74.1 | 120 | 126

Same assay, conditions: Homo sapiens; pH 2.6; Thermal; DSC; Gly-HCl 0.05 M; structure 1LZ1; whole UniProt chain shown

Variant | Tm [°C] | unfolding enthalpy (calorimetric) [kcal/mol] | unfolding enthalpy (van 't Hoff) [kcal/mol]
V20N | 59.1 | 104 | 99.9
V20R | 62.1 | 103 | 110
V92D | 61.7 | 103 | 110

Same assay, conditions: Homo sapiens; pH 2.82; Thermal; DSC; Gly-HCl 0.05 M; structure 1LZ1; whole UniProt chain shown

Variant | Tm [°C] | unfolding enthalpy (calorimetric) [kcal/mol] | unfolding enthalpy (van 't Hoff) [kcal/mol]
V20N | 62.7 | 110 | 105

Same assay, conditions: Homo sapiens; pH 2.65; Thermal; DSC; Gly-HCl 0.05 M; structure 1LZ1; whole UniProt chain shown

Variant | Tm [°C] | unfolding enthalpy (calorimetric) [kcal/mol] | unfolding enthalpy (van 't Hoff) [kcal/mol]
V20S | 59.4 | 103 | 103
V92N | 63 | 110 | 114

Same assay, conditions: Homo sapiens; pH 2.83; Thermal; DSC; Gly-HCl 0.05 M; structure 1LZ1; whole UniProt chain shown

Variant | Tm [°C] | unfolding enthalpy (calorimetric) [kcal/mol] | unfolding enthalpy (van 't Hoff) [kcal/mol]
V20S | 62.9 | 108 | 107
V20Y | 65.9 | 108 | 110
V128N | 67.2 | 113 | 115
V92S | 66 | 109 | 115
V92D | 65.9 | 107 | 115

Same assay, conditions: Homo sapiens; pH 3.09; Thermal; DSC; Gly-HCl 0.05 M; structure 1LZ1; whole UniProt chain shown

Variant | Tm [°C] | unfolding enthalpy (calorimetric) [kcal/mol] | unfolding enthalpy (van 't Hoff) [kcal/mol]
V20S | 67.1 | 115 | 114

Same assay, conditions: Homo sapiens; pH 3.45; Thermal; DSC; Gly-HCl 0.05 M; structure 1LZ1; whole UniProt chain shown

Variant | Tm [°C] | unfolding enthalpy (calorimetric) [kcal/mol] | unfolding enthalpy (van 't Hoff) [kcal/mol]
V20S | 73 | 124 | 126

Same assay, conditions: Homo sapiens; pH 2.88; Thermal; DSC; Gly-HCl 0.05 M; structure 1LZ1; whole UniProt chain shown

Variant | Tm [°C] | unfolding enthalpy (calorimetric) [kcal/mol] | unfolding enthalpy (van 't Hoff) [kcal/mol]
V20R | 66.4 | 108 | 115

Same assay, conditions: Homo sapiens; pH 3.15; Thermal; DSC; Gly-HCl 0.05 M; structure 1LZ1; whole UniProt chain shown

Variant | Tm [°C] | unfolding enthalpy (calorimetric) [kcal/mol] | unfolding enthalpy (van 't Hoff) [kcal/mol]
V20R | 70.7 | 114 | 123
V128R | 75 | 117 | 120

Same assay, conditions: Homo sapiens; pH 2.91; Thermal; DSC; Gly-HCl 0.05 M; structure 1LZ1; whole UniProt chain shown

Variant | Tm [°C] | unfolding enthalpy (calorimetric) [kcal/mol] | unfolding enthalpy (van 't Hoff) [kcal/mol]
V20Y | 67.4 | 111 | 112

Same assay, conditions: Homo sapiens; pH 3.2; Thermal; DSC; Gly-HCl 0.05 M; structure 1LZ1; whole UniProt chain shown

Variant | Tm [°C] | unfolding enthalpy (calorimetric) [kcal/mol] | unfolding enthalpy (van 't Hoff) [kcal/mol]
V20Y | 72.3 | 119 | 120

Same assay, conditions: Homo sapiens; pH 3.21; Thermal; DSC; Gly-HCl 0.05 M; structure 1LZ1; whole UniProt chain shown

Variant | Tm [°C] | unfolding enthalpy (calorimetric) [kcal/mol] | unfolding enthalpy (van 't Hoff) [kcal/mol]
V20Y | 72 | 120 | 120
V92Y | 73.3 | 120 | 120

Same assay, conditions: Homo sapiens; pH 3.24; Thermal; DSC; Gly-HCl 0.05 M; structure 1LZ1; whole UniProt chain shown

Variant | Tm [°C] | unfolding enthalpy (calorimetric) [kcal/mol] | unfolding enthalpy (van 't Hoff) [kcal/mol]
V20Y | 73 | 121 | 122

Same assay, conditions: Homo sapiens; pH 2.63; Thermal; DSC; Gly-HCl 0.05 M; structure 1LZ1; whole UniProt chain shown

Variant | Tm [°C] | unfolding enthalpy (calorimetric) [kcal/mol] | unfolding enthalpy (van 't Hoff) [kcal/mol]
V128D | 63.9 | 90.3 | 108

Same assay, conditions: Homo sapiens; pH 2.84; Thermal; DSC; Gly-HCl 0.05 M; structure 1LZ1; whole UniProt chain shown

Variant | Tm [°C] | unfolding enthalpy (calorimetric) [kcal/mol] | unfolding enthalpy (van 't Hoff) [kcal/mol]
V128D | 67.9 | 96.8 | 112
V92N | 66.2 | 114 | 116

Same assay, conditions: Homo sapiens; pH 3; Thermal; DSC; Gly-HCl 0.05 M; structure 1LZ1; whole UniProt chain shown

Variant | Tm [°C] | unfolding enthalpy (calorimetric) [kcal/mol] | unfolding enthalpy (van 't Hoff) [kcal/mol]
V128D | 70.4 | 103 | 120
V92R | 69.5 | 112 | 109

Same assay, conditions: Homo sapiens; pH 3.34; Thermal; DSC; Gly-HCl 0.05 M; structure 1LZ1; whole UniProt chain shown

Variant | Tm [°C] | unfolding enthalpy (calorimetric) [kcal/mol] | unfolding enthalpy (van 't Hoff) [kcal/mol]
V128D | 75.5 | 108 | 125

Same assay, conditions: Homo sapiens; pH 2.64; Thermal; DSC; Gly-HCl 0.05 M; structure 1LZ1; whole UniProt chain shown

Variant | Tm [°C] | unfolding enthalpy (calorimetric) [kcal/mol] | unfolding enthalpy (van 't Hoff) [kcal/mol]
V128N | 64 | 108 | 109

Same assay, conditions: Homo sapiens; pH 3.04; Thermal; DSC; Gly-HCl 0.05 M; structure 1LZ1; whole UniProt chain shown

Variant | Tm [°C] | unfolding enthalpy (calorimetric) [kcal/mol] | unfolding enthalpy (van 't Hoff) [kcal/mol]
V128N | 70.6 | 118 | 118

Same assay, conditions: Homo sapiens; pH 3.13; Thermal; DSC; Gly-HCl 0.05 M; structure 1LZ1; whole UniProt chain shown

Variant | Tm [°C] | unfolding enthalpy (calorimetric) [kcal/mol] | unfolding enthalpy (van 't Hoff) [kcal/mol]
V128N | 71.7 | 120 | 122

Same assay, conditions: Homo sapiens; pH 2.98; Thermal; DSC; Gly-HCl 0.05 M; structure 1LZ1; whole UniProt chain shown

Variant | Tm [°C] | unfolding enthalpy (calorimetric) [kcal/mol] | unfolding enthalpy (van 't Hoff) [kcal/mol]
V128Y | 69.3 | 114 | 114
V92D | 68.1 | 112 | 118

Same assay, conditions: Homo sapiens; pH 3.18; Thermal; DSC; Gly-HCl 0.05 M; structure 1LZ1; whole UniProt chain shown

Variant | Tm [°C] | unfolding enthalpy (calorimetric) [kcal/mol] | unfolding enthalpy (van 't Hoff) [kcal/mol]
V128Y | 72.2 | 120 | 121
V92R | 72.8 | 117 | 114

Same assay, conditions: Homo sapiens; pH 3.38; Thermal; DSC; Gly-HCl 0.05 M; structure 1LZ1; whole UniProt chain shown

Variant | Tm [°C] | unfolding enthalpy (calorimetric) [kcal/mol] | unfolding enthalpy (van 't Hoff) [kcal/mol]
V128Y | 75.4 | 125 | 125

Same assay, conditions: Homo sapiens; pH 2.8; Thermal; DSC; Gly-HCl 0.05 M; structure 1LZ1; whole UniProt chain shown

Variant | Tm [°C] | unfolding enthalpy (calorimetric) [kcal/mol] | unfolding enthalpy (van 't Hoff) [kcal/mol]
V128R | 69.3 | 108 | 110

Same assay, conditions: Homo sapiens; pH 2.61; Thermal; DSC; Gly-HCl 0.05 M; structure 1LZ1; whole UniProt chain shown

Variant | Tm [°C] | unfolding enthalpy (calorimetric) [kcal/mol] | unfolding enthalpy (van 't Hoff) [kcal/mol]
V92S | 62.1 | 105 | 110

Same assay, conditions: Homo sapiens; pH 3.28; Thermal; DSC; Gly-HCl 0.05 M; structure 1LZ1; whole UniProt chain shown

Variant | Tm [°C] | unfolding enthalpy (calorimetric) [kcal/mol] | unfolding enthalpy (van 't Hoff) [kcal/mol]
V92S | 72.2 | 117 | 122

Same assay, conditions: Homo sapiens; pH 2.85; Thermal; DSC; Gly-HCl 0.05 M; structure 1LZ1; whole UniProt chain shown

Variant | Tm [°C] | unfolding enthalpy (calorimetric) [kcal/mol] | unfolding enthalpy (van 't Hoff) [kcal/mol]
V92R | 67.3 | 108 | 105

Same assay, conditions: Homo sapiens; pH 3.22; Thermal; DSC; Gly-HCl 0.05 M; structure 1LZ1; whole UniProt chain shown

Variant | Tm [°C] | unfolding enthalpy (calorimetric) [kcal/mol] | unfolding enthalpy (van 't Hoff) [kcal/mol]
V92R | 73.2 | 118 | 116

Same assay, conditions: Homo sapiens; pH 2.67; Thermal; DSC; Gly-HCl 0.05 M; structure 1LZ1; whole UniProt chain shown

Variant | Tm [°C] | unfolding enthalpy (calorimetric) [kcal/mol] | unfolding enthalpy (van 't Hoff) [kcal/mol]
V92Y | 63.3 | 104 | 104

Same assay, conditions: Homo sapiens; pH 3.02; Thermal; DSC; Gly-HCl 0.05 M; structure 1LZ1; whole UniProt chain shown

Variant | Tm [°C] | unfolding enthalpy (calorimetric) [kcal/mol] | unfolding enthalpy (van 't Hoff) [kcal/mol]
V92Y | 70 | 115 | 116

Same assay, conditions: Homo sapiens; pH 3.26; Thermal; DSC; Gly-HCl 0.05 M; structure 1LZ1; whole UniProt chain shown

Variant | Tm [°C] | unfolding enthalpy (calorimetric) [kcal/mol] | unfolding enthalpy (van 't Hoff) [kcal/mol]
V92Y | 74.1 | 122 | 123

Same assay, conditions: Homo sapiens; pH 3.1; Thermal; DSC; Gly-HCl 0.05 M; structure 1LZ1; whole UniProt chain shown

Variant | Tm [°C] | unfolding enthalpy (calorimetric) [kcal/mol] | unfolding enthalpy (van 't Hoff) [kcal/mol]
V92D | 70.1 | 115 | 123

Same assay, conditions: Homo sapiens; pH 3.25; Thermal; DSC; Gly-HCl 0.05 M; structure 1LZ1; whole UniProt chain shown

Variant | Tm [°C] | unfolding enthalpy (calorimetric) [kcal/mol] | unfolding enthalpy (van 't Hoff) [kcal/mol]
V92D | 72.5 | 120 | 127
